According to the supplement of paper PMC10126150:
± gives the standard deviation of the averaged measurements.

test system: ATP; assay: switch fluorescence ratio, 500 uM ATP over buffer (Cy3 cluster intensity, sum of 5 cycles each) (fold (ratio)); higher = stronger signal-on switching upon ATP binding; sequences stand for … in TCGTCGGCAGCGTCAGATGTGTATAAGAGACAGTTTTTTTTTTTTTTTTTTTTTTTTT…TC; conditions: aptamer strand: ATP DNA aptamer (quencher-CACCTGGGGGAGTATTGCGGAGGAAGG + anchor), 100 nM annealed; ATP concentration: 500 uM
Summary of the method: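 Values give the fluorescence ratio for each switch-domain sequence, averaged from per-cluster ratios of summed target-cycle to summed buffer-cycle Cy3 intensity. The Cy3-labelled switching-strand clusters sat on a modified Illumina MiSeq flow-cell, were annealed to 100 nM quencher-labelled ATP aptamer, and were imaged in selection buffer, then after 15 min with 500 uM ATP at 22 °C. Five cycles ran with NaOH stripping and re-annealing between them, and clusters outside 100-1000 RFU were excluded.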
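Further: ATP exposure 15 min at 22 °C before imaging.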

Sequence	switch fluorescence ratio
TTTAGGAAAG	1.05 ± 0.063
AGGGTCAACG	1.018 ± 0.0099
ACATAGGAAC	1.024 ± 0.004
GTTATTGAAG	0.982 ± 0.022
GGTGAATGGG	1.01 ± 0.032
TTGGCCACGC	1.018 ± 0.0056
GGGGTAAAAG	1.08 ± 0.2
GTTGTCCATA	1.015 ± 0.0029
TGAGCTAAAT	1.18 ± 0.31
GGGGTGGAAA	0.979 ± 0.018
TAAGTCATTG	0.985 ± 0.049
GAGAGTACTT	0.9945 ± 0.0093
AAATGTAAAA	1.01 ± 0.042
TTCAGGCCGT	1.02 ± 0.056
ATATCGGAGG	0.99 ± 0.041
CGGGGGAGGC	0.96 ± 0.018
ACGTCGGTAC	3 ± 0.49
ATGATTGGAT	0.996 ± 0.029
CTCAGCAGTC	1.2 ± 0.034
TGGACCGGGG	1.016 ± 0.0034
GATGATGTTC	0.9439 ± 0.0072
GATACATGCT	0.979 ± 0.036
CAAAAAGCGT	0.9786 ± 0.0056

Sequence	switch fluorescence ratio
CTCAGCCAGT	1.29 ± 0.056
TATGGGATTA	1.04 ± 0.064
TTGATTGCTT	0.9717 ± 0.0011
CCGTTTGGGA	0.998 ± 0.032
GTCTAACGCG	0.9698 ± 0.0072
TACGTGCTTG	0.989 ± 0.03
GTAGGGGATT	1.029 ± 0.006
ATGAGTACAG	1.02 ± 0.027
GCTTCGGATC	1.22 ± 0.038
GAGAGAGGGC	0.966 ± 0.073
TACATGCTGC	1.03 ± 0.022
TCGGGGTAGC	0.974 ± 0.025
GGGCCGGGGG	1 ± 0.022
GGGGTAAACT	1.01 ± 0.034
GTTTGTTTTT	0.976 ± 0.032
TGTTTAAGCG	0.958 ± 0.085
GAATCCGTAG	1.16 ± 0.03
AGGGATGGTA	1.006 ± 0.0083
TCATGGGTAA	1.01 ± 0.029
TTAAAGGGA	1.01 ± 0.022
ATCTTAAGAT	0.984 ± 0.066
CTCGTCCTTA	1.019 ± 0.0051
GGGATTTACG	1.02 ± 0.019

Sequence	switch fluorescence ratio
ACAGGGGGTA	1.02 ± 0.024
GAAGTAGTAA	1.02 ± 0.03
GTTAACGCGT	1.02 ± 0.02
GCACACCAGT	1.04 ± 0.014
TAAGCAAATG	1.038 ± 0.0072
TGCGTAAGGC	1.18 ± 0.025
AAATCAAATT	1.007 ± 0.0055
ACAGCTTTTT	1.01 ± 0.013
TGCCAGATTT	0.993 ± 0.041
TTCCCCGTTG	1.12 ± 0.15
AGGGGATGAA	1.04 ± 0.027
ACGAGATGGT	1.023 ± 0.0069
TTGTGGCAGG	1.01 ± 0.054
GACCGAGTTC	1.005 ± 0.0024
TAACTGTCTT	0.966 ± 0.013
CAATGCAGGG	1.03 ± 0.014
GGCGTAAATG	1.02 ± 0.0066
AACGATTGGC	1.08 ± 0.018
GTGGGAAAG	0.983 ± 0.016
AACCGAAGAC	2.15 ± 0.075
TAGGAGGCTC	1.03 ± 0.014
GCGTGCAGGG	1.01 ± 0.025
TTTGTTTTAG	0.983 ± 0.031

Sequence	switch fluorescence ratio
TTTTGAGTAG	0.987 ± 0.021
GGCAGTGCGG	1 ± 0.06
TGGTTGGGTG	1.03 ± 0.059
CAGAGATTCT	0.992 ± 0.0077
GGCGGCTGAG	1 ± 0.067
ATTCTGGTGC	1.12 ± 0.025
TTGTTAGGCC	0.995 ± 0.021
TTACAAGGGA	1.09 ± 0.18
CGATCGGGAT	1.12 ± 0.13
GGCATGGTGG	1.01 ± 0.023
TTTTCCTTGT	1.08 ± 0.13
TTGGAAGCAT	1.01 ± 0.036
CCGTAATATT	3.69 ± 1.8
TTGTTGTAGC	1.02 ± 0.015
GGGGCGTAGT	0.9995 ± 0.0075
AAAAAAGACG	1.05 ± 0.017
GGTTAAGCCG	0.996 ± 0.017
TTGCTCGTGG	1.028 ± 0.0047
GGTGTATGGT	0.985 ± 0.018
TTTGTTTAAA	0.974 ± 0.027
GGGTATTGTT	0.995 ± 0.024
CACCAATAGC	1.31 ± 0.059
TGGAGTTACT	0.994 ± 0.061

Sequence	switch fluorescence ratio
TATACGGGTG	1.073 ± 0.0046
AAAAATGGAG	0.958 ± 0.017
ACCATGGGAA	1.04 ± 0.022
AAGCCTTTTT	1.01 ± 0.019
GTATGGGACG	1.003 ± 0.006
GACTTTGGGC	1.01 ± 0.038
TAAATGAAGG	1.04 ± 0.048
CACGGCCCAA	0.9224 ± 0.0023
ATATTCTTGT	1.009 ± 0.0095
GCTAGCCATT	0.978 ± 0.029
CGGGGGTTGT	0.963 ± 0.036
CAGGTGAGTG	1.251 ± 0.0088
AGATGGTCTG	1.01 ± 0.032
CTGGTTCAGA	0.994 ± 0.013
TTGTTTTTTC	0.986 ± 0.026
TGGGGTTGAG	0.984 ± 0.019
CATGGTTTTT	0.9989 ± 0.0082
ATCTGTGATA	0.977 ± 0.048
GGGTAGCTCT	1.06 ± 0.076
AATCTAGATT	1.002 ± 0.003
GGGTGACAGG	0.978 ± 0.017
TGTTATATTA	1.01 ± 0.034
AGTTAGAGGT	1.05 ± 0.018

Sequence	switch fluorescence ratio
GGGTATTGGA	0.9828 ± 0.0047
AGGGGGTTGT	0.995 ± 0.026
TTTGGATTTG	1.03 ± 0.027
TAGCAACGGG	1.03 ± 0.015
ATGCTTAGGG	0.944 ± 0.02
TTTTTCAAGG	1.01 ± 0.013
GTGTAGGGAT	0.964 ± 0.015
AGGAAAAACT	1.02 ± 0.047
TTTTTATAAG	0.994 ± 0.019
TATCGAAATT	0.981 ± 0.021
TGCATTAGAG	1.02 ± 0.034
GAAATGCTCT	1.01 ± 0.033
CATGTTTTTT	0.987 ± 0.024
GGGGGCTGCA	1.02 ± 0.032
AGCATGGTTG	1.01 ± 0.026
GGGGTGTACA	0.969 ± 0.027
GATTAACGCT	1.03 ± 0.026
GGTGAAGTCA	1 ± 0.024
TTCCTGGAC	1.7 ± 0.39
GATTGTAGGC	1.03 ± 0.011
CGGGACCGGC	1.04 ± 0.13
GGTTAGAAGG	0.96 ± 0.031
TAGTCGAGAC	1.01 ± 0.018

Sequence	switch fluorescence ratio
TTGAATTTGT	0.975 ± 0.023
AATTTCAAGT	1 ± 0.039
CGCTTTGACT	1.08 ± 0.021
TTTCCGCAGG	1.24 ± 0.17
TCCCATGGCG	1.04 ± 0.062
TGTGTCGCGG	1 ± 0.033
TAAAATACTT	1.11 ± 0.16
TACCTGCGAA	2.07 ± 1.3
TAAATTTTGT	1.02 ± 0.039
CGGAGGCTTG	1.01 ± 0.061
ACTTTAGTTC	1.01 ± 0.036
GCCAATGGTT	1.08 ± 0.16
AAGGTTTCGT	1 ± 0.024
AAAGCGAAGG	1.01 ± 0.044
CACCGTGGTC	1.14 ± 0.023
ATAATTCATC	1 ± 0.013
GCCTTACCTG	1.05 ± 0.012
TTTCGATGGG	0.978 ± 0.015
CATTTTAATA	1.01 ± 0.021
